The text below walks through data of patent publication US20180016354A1 (Merck KGaA, published 2018).

The target in this test is T1, EGFR (on EGFR-expressing A431 cells) (UniProt P00533 25-1210, limits assumed).
T1 construct: whole, on cells; A431 is a human cell line; also called EGFR-positive cells; EGFR-overexpressing A431 cells
The test is described as follows: flow cytometry on A431 cells.

B1: one-armed anti-EGFR SEED antibody with KiH2 CH3 domain-exchanged Fab, Variant 2 (antibody)
heavy: QVQLVQSGAEVKKPGASVKVSCKASGYTFTSHWMHWVRQAPGQGLEWIGEFNPSNGRTNYNEKFKSKATMTVDTSTNTAYMELSSLRSEDTAVYYCASRDYDYDGRYFDYWGQGTLVTVSSASTKGEPQVYTLPPSRDELTKNQVSLSCAVKGFYPSDIAVEWESNGQPENNYKTTPPVLDSDGSFFLVSKLTVDKSRWQQGNVFSCSVMHEALHNHYTQKSLSLSKSCDKTHTCPPCPAPELLGGPSVFLFPPKPKDTLMISRTPEVTCVVVDVSHEDPEVKFNWYVDGVEVHNAKTKPREEQYNSTYRVVSVLTVLHQDWLNGKEYKCKVSNKALPAPIEKTISKAKGQPFRPEVHLLPPSREEMTKNQVSLTCLARGFYPKDIAVEWESNGQPENNYKTTPSRQEPSQGTTTFAVTSKLTVDKSRWQQGNVFSCSVMHEALHNHYTQKTISLSPGK
light: DIQMTQSPSSLSASVGDRVTITCSASSSVTYMYWYQQKPGKAPKLLIYDTSNLASGVPSRFSGSGSGTDYTFTISSLQPEDIATYYCQQWSSHIFTFGQGTKVEIKRTVAEPQVYTLPPSRDELTKNQVSLWCLVKGFYPSDIAVEWESNGQPENNYKTTPPVLDSDGSFFLYSKLTVDKSRWQQGNVFSCSVMHEALHNHYTQKSLSLSGEC
chain: EPKSSDKTHTCPPCPAPELLGGPSVFLFPPKPKDTLMISRTPEVTCVVVDVSHEDPEVKFNWYVDGVEVHNAKTKPREEQYNSTYRVVSVLTVLHQDWLNGKEYKCKVSNKALPAPIEKTISKAKGQPREPQVYTLPPPSEELALNELVTLTCLVKGFYPSDIAVEWLQGSQELPREKYLTWAPVLDSDGSFFLYSILRVAAEDWKKGDTFSCSVMHEALHNHYTQKSLDRSPGK
notes: hu425 Fv; one Fab arm only; also called KiH2 variant 2
Consider B1, for which the binding result is recorded as “binds”.

B2: one-armed anti-EGFR SEED antibody with SEED CH3 domain-exchanged Fab, Variant 1 (antibody)
heavy: QVQLVQSGAEVKKPGASVKVSCKASGYTFTSHWMHWVRQAPGQGLEWIGEFNPSNGRTNYNEKFKSKATMTVDTSTNTAYMELSSLRSEDTAVYYCASRDYDYDGRYFDYWGQGTLVTVSSASTKGPEVHLLPPSREEMTKNQVSLTCLARGFYPKDIAVEWESNGQPENNYKTTPSRQEPSQGTTTFAVTSKLTVDKSRWQQGNVFSCSVMHEALHNHYTQKTISLSKSCDKTHTCPPCPAPELLGGPSVFLFPPKPKDTLMISRTPEVTCVVVDVSHEDPEVKFNWYVDGVEVHNAKTKPREEQYNSTYRVVSVLTVLHQDWLNGKEYKCKVSNKALPAPIEKTISKAKGQPFRPEVHLLPPSREEMTKNQVSLTCLARGFYPKDIAVEWESNGQPENNYKTTPSRQEPSQGTTTFAVTSKLTVDKSRWQQGNVFSCSVMHEALHNHYTQKTISLSPGK
light: DIQMTQSPSSLSASVGDRVTITCSASSSVTYMYWYQQKPGKAPKLLIYDTSNLASGVPSRFSGSGSGTDYTFTISSLQPEDIATYYCQQWSSHIFTFGQGTKVEIKRTVAEPQVYTLPPPSEELALNELVTLTCLVKGFYPSDIAVEWLQGSQELPREKYLTWAPVLDSDGSFFLYSILRVAAEDWKKGDTFSCSVMHEALHNHYTQKSLDRSGEC
chain: EPKSSDKTHTCPPCPAPELLGGPSVFLFPPKPKDTLMISRTPEVTCVVVDVSHEDPEVKFNWYVDGVEVHNAKTKPREEQYNSTYRVVSVLTVLHQDWLNGKEYKCKVSNKALPAPIEKTISKAKGQPREPQVYTLPPPSEELALNELVTLTCLVKGFYPSDIAVEWLQGSQELPREKYLTWAPVLDSDGSFFLYSILRVAAEDWKKGDTFSCSVMHEALHNHYTQKSLDRSPGK
notes: hu425 Fv; one Fab arm only; also called CH3-SEED variant 1
With B2, the binding result is recorded as “binds”.
